In a protein production outcome set (Wang et al. 2014):

Assay: label from the status in PepcDB records

Question: Which protein production does the source give for “MANIEYDPERQLFHLHNDTFSYVIQVIRGYLVKRYCGPALDHFSGTAKLEDFSHAFNIQNDAAPYSLTTLPLEYSTLMGGDYRTPAYAVRNGHGQLIGNLKFDHYQILAGNESFNGTLPTARTPHGQTLIITMHDETQTLAVRLKYTIVGDLPVLLKQVEYRNLTDTTLTITHAASLQLDFDDHAYDLITLTGAHLNEAKVTRQPLTPGKKSIGSNYGASGPQGVPATILAAPATNEFAGEALGVTLLWSGNFNYTAQVDQFDNSRLVMGLNPELFAWQLKPGKPFVTPEAAVAYTNDGLNDLSRIFHRFFADHVMPLPRKNLIEYNTWETTYFDVSEAKILAEIPKAEELGVELLVIDDGWFKNRPNDAGQLGDWVPDPAKFPHGLRPVADAIHARGLAFGLWVEPEMISENSELYATHPDWAMQYVGQKPLRSRNQLILDLSQRIVQDHLITVLTNLVRDNHIDYLKWDYNRHFSQPGSPVLPPDQQGEVGYRYTRGLYRVLKTLRDTFPKLLIENCSSGGGRLDGGMIAYTDQTWTSDFTDPVYRMKIMNGFSLFFPLKIFVSHFTASPNLQDARLTPLHTRALLSLVGITGIECPPSQLSPAEAAAVKASFAFYKANRKELQNGLLFRLQPSHVNQDEVCWLITNAAKTKALVLTSVGVTSPIPHYQHVLLHYLDPKLSYQIDNTKNATGLELNHAGVTLPLAHGDFSATLMELTAVTNLPQPTAAPTLEHHHHHH” here?
Answer: failed

Question: For “MANKFSAAVVYAVFSSFALNFFYQPGHVYASGATGAAQVVTELVARISGHNILPISASLILVNAPLFILAWRGIGKQFTVYTVITVVMSSVFIHFIPVTPLTHEPVINAVFGGAIMGFGVGNAMKSGISSGGTDIVSLYMRKKTGRSVGTLAFLVNGVIIFTAGVLFGWEYMLYSLIAIFVNSRVQDAIFTRQKRLQVMIVTKNPELLTKKLVNRFKHGVTILHDAEGGYTHTSQTVLMTVITMYEYQEFKDIIQKYDEHAFVSISENVRVLGKFAEVED”, which protein production is on record?
Answer: failed

Question: Which protein production does the source give for “MANKVEHRLSEQQMKALTDLPLVFLITHDQSKSWPITHAISWVYAKDETTIRFAIEADSLLVKTLADHPVFTLIFFADQSTYSLTCTDVAAWETTARLPLKVALYEGQIKEVRDILFYGAAVSDRPRVYKTYDEAAAMQLDQQIQDILKG” here?
Answer: not failed

Question: With “MANLFSFLFLGTLGWGMSLYLMKILLVSLTPTEIVLYRMAIGAASLFILAKLFKLKTDNIRGLILDGIIVGTFNMTLPFYLTTYAVKTVSSSLASVINGLTPLCTLILGMVFFSSKQKLGVLNLLSIVLGFIGIIIINSDVSIYQGSAVEFIALLATTISYGVTANYFKYHARTKEPILVSAVSAFVSAITMLIFKCATESSINSWGIPQGMNQIIALLWLGIIGSGFCLYLYCSLIQNAGAVFASMITYLMTITGVIMGMIFLHETISHQVMIGCIFIFFSLILVNHAPLLEKILVSISRQISLKSARRYELNQ” as the sequence, how does the protein production read?
Answer: failed

Question: For “MANLGMTGVADGNNSEQTYLGQINYQDQTITKASAKKLNREIDLQRASQLTLWAMPMVGMYQSYNSTIALFDLQEGDAPIIGLHEGYDGVYPFLTANVTTPYTISLVDLSETGPYVVNIPAGSIFGVANNAWQEPIKEIGSGNKETLLFVGPGQEYPKDFDGEVIQSDTNQILYFYRVLGVGAEAEKLKTAVTAYKLSDVANPPQVKFVIYKPKASDADVTIATQPRGMAYWEVVNQYIQNEPMADRDRFFYAWLKDLGIEKGKAFNPTPYQKEILLEGVNTGMAMAQSLAFNKTKKKFSSSLYGSDSGWEGVLAGMDPKIDLDTYSMINERTAYTYEAVTTSAGMIVENPGHGSAYIGSYYDADGNALMGGKNYTLHIEPNPPAANFWSITVYDIKNRLIIRNEIKRSDLSSRSESLVMNSDGSVDLYFGPEAPEGKEGNWIQSNDGESYFMYLRLYGPEQEYFDQTYPMNKIDKTKLEHHHHHH”, which protein production is on record?
Answer: failed

Question: For “MANLWIHALTVFMGFFAIMNPIANVPIFLSLTEGDDKKTTAMVASRALLLAFLIVTIFSVAGKLIFDLFGITLPAFQITGGLLVFLIGFHMLQGDQSSVQHPSETGKKKSPEAALSVTVSPLAMPILAGPGTIATAMNFSTGENFMEMAVTIVVFGVLCLITYVLFVSGEKFVTYIGASALGVITRMMGLILAVIGAQMVIAGIHGAFGLGAG”, which protein production is on record?
Answer: failed

Question: Which protein production does the source give for “MANNSPNAAVSVQSPTHQQALACLRELVGHPEAQFHDGQYEAIEALVDAGRRALVVQRTGWGKSAVYFVASLLLRRRGSGPTLIVSPLLALMRDQVAAAARAGVRAVAINSANALEWDTVLAQLAADEVDVLLVSPERLTNPSFRENQLPELIRRTGLLVIDEAHCISDWGHDFRPDYRRIADLIAQLPESVPVLATTATANSRVVHDIEEQLGAGVLTIRGALGRESLRLGVLTLPDSRDRLGWLLTHLADMPGSGIIYTLTVSAAEDTARLLAEAGHNVLSYTGRTDPADRERAEQLLKDNQVKALVATSALGMGFDKPDLGFVIHLGAPSSPVAYYQQVGRAGRGAANADVLLLPGSEDREIWQYFATASMPSAEKAAAVLGVLGEAGSALSTVALEARVDLRRTPLELLLKVLAVDGAVERVGGGWRSTGQPWNYDAERYARIAEARVDEQDSMVIYQDTAGCRMEYITSVLDDETAASCGRCDNCAGRWFPVDVAASAADAAGQTLRRAGIAVEPRLQWPSGMDRLGVAAKGKIKPDESVSEGRILARLTDLGWGGALRELFAAGAPDHAVDPAMLQACVQVLREWSGAEGGTPWSGVGRPAAVVSIPSRSKPQLVESLAQGIAGIGRMPYLGQLQPQYGGPTGARGGNSAYRLAGVWDRLVVGPELAQALAGTGGQPVLLVDDLIDSRWTMTVSARALRQAGVSAVLPLALAQAG” here?
Answer: failed

Question: With “MANSLRTLFSVSTHGVFLNKRSSYRVRKVFVGMPLRICSEIPRFVSVSCIRSDMCGIMMLGKDVHDLLETSSGGNVEKGFLRWRNGGGMYHRSALIDSSALVEFGAVVHQEAILGAEVHIGSNTVIGSSVKIGPSTKIGNCSIGDLCVIHNGVCIGQDGFGFYVDDNGNMVKKPQTLNVKIGNRVEIGANTCIDRGSWRDTVIGDDTKIDNLVQIGHNVIIGKCCLFCGQVGIAGSAEIGDFVALGGRVAVRDHVSIVSKVRLAANSCVTKNITEPGDYGGFPAQEETITYSVCQTQED” as the sequence, how does the protein production read?
Answer: failed

Question: For “MANSTESGSLQSSSTVKVRSHYRPNNGTGSPGGRPRPKRGFLPLGKGLVWGGLVTLTATVAAIAGVGIGFFTPGPKGLVQQVIPGQSAGVEAGQADLFPYHISRPVNILVMGIDRVEPTEEEPNVDEFGGRSDTMLLVRFDPRENGLKLLSIPRDTRVFIPDVGYTKINDANAYGGPQLAARVINRNLGEVPIDRYVRVTTDALQELVDLVGGVEVFVPRPMFYEDKTQQLLIDLPAGLQTLNGQQAEQFVRFRYDANGDIGRVQRQETLLKALQNRLSHPSMITRIPKAIGIMQKTVDTNLTMEEILALVNFGRQLDRQEVQMVMLPGRFSQPAEFDGRSYWVMSDVGKRQVLRNYFDVIEEVPTWAETPGRSPESLRIALQNATDDPQALERVKEYLQSKDFRNFYETSESPQLLAETKILVQRGDLDGAHYLRQTLGGGVVEASSVGDLGSDLTIQVGMDLDQWLKESTPVDDSTPQF”, which protein production is on record?
Answer: failed

Question: With “MANYPKELPAQTQSRQPGIESEMNPSPVYEYEDYKGADKLKGKVALITGGDSGIGRAVSVAYAKEGADIAIVYKDEHEDAEETKKRVEQEGVKCLLIAGDVGEEEFCNEAVEKTVKELGGLDILVNNAGEQHPKESIKDITSEQLHRTFKTNFYSQFYLTKKAIDYLKPGSAIINTTSINPYVGNPTLIDYTATKGAINAFTRTMAQALVKDGIRVNAVAPGPIWTPLIPATFPEETVAQFGQDTPMGRPGQPVEHVGCYVLLASDESSYMTGQTLHVNGGNFVT” as the sequence, how does the protein production read?
Answer: not failed

Question: With “MANYYEPPASGNRRDAVKGYNSGSFDDSAGDQSQTNDYQLKIKKSKSVPNADRAASRSWSFSDPESRRKRRVAGYKVYSVEQKMKGSIRKSFKWFKDIIGIS” as the sequence, how does the protein production read?
Answer: failed

Question: Which protein production does the source give for “MAPCAGGTCRTASERRHLQCRSRPSQGRQGGSKSAGRGFIAAEFPCLDGGEPISTARAFRDRNREFSPAMRAILDIVLIILDLYIWLLIASAILSWLIAFNVVNTRNQFVGAVSEFLYRITEPLLAPIRNLLPSLGGLDISPIILILLIMFLQRVITYYIYPAVF” here?
Answer: failed

Question: For “MAPETLAPDTTGLEVRLRLTDDWFTACDLGALLPGRGVAALLPDGGQVALFRDRDGGLYAIDNRDPFTGAAVLSRGLTGTHQGRPFVASPLLKQRFDLTTGECLDDAAMRVETYRVQAVRAVPAVNAVNPALEHHHHHH”, which protein production is on record?
Answer: failed

Question: For “MAPLGGAPRLVLLFSGKRKSGKDFVTEALQSRLGADVCAVLRLSGPLKEQYAQEHGLNFQRLLDTSTYKEAFRKDMIRWGEEKRQADPGFFCRKIVEGISQPIWLVSDTRRVSDIQWFREAYGAVTQTVRVVALEQSRQQRGWVFTPGVDDAESECGLDNFGDFDWVIENHGVEQRLEEQLENLIEFIRSRL”, which protein production is on record?
Answer: failed
